The values that follow come from patent publication US20150050278A1 (US Dept. of Health and Human Services, published 2015).

For assay [1], the target named is T1, human neonatal Fc receptor (FcRn), soluble (human, UniProt P55899 24-297; P61769 21-119, limits assumed).
T1 construct: also called human FcRn; human single-chain soluble FcRn
Briefly: SPR (BIAcore), human FcRn immobilised, pH 6.0; concentrations not given. In general terms: SPR reads the build-up and loss of mass on a sensor chip optically.

Assay [2] addresses T1, human neonatal Fc receptor (FcRn), …. Briefly: SPR (BIAcore), human FcRn immobilised, pH 6.0; SPR (BIAcore), FcRn on the chip, pH 6.0.
Experimental: The interaction of monomeric Fc with immobilized FcRn was monitored by SPR detection using a BIAcore X100 instrument (GE Healthcare). Purified human FcRn was diluted in 10 mM Na-acetate buffer, pH 5.0, and immobilized on a CM5 biosensor chip using amine coupling kit. The running buffer was PBS with 0.005% Tween 20 for testing binding at pH 7.4, or PBS pH 6.0 with 0.005% Tween 20 for binding at pH 6.0. […] After 10 min of dissociation, the chip was regenerated with pH 8.0 buffer (100 mM Tris, pH 8.0, 50 mM NaCl). Another test with a protein concentration of 500 nM was repeated to monitor the regeneration efficiency.
It was determined whether mCH3 could bind FcRn in a pH-dependent manner. Surface plasmon resonance (SPR) binding was performed using a BIAcore instrument with human FcRn immobilized on the chip, as described previously. The measurements were carried out under pH 6.0 or pH 7.4, and the chips were regenerated after binding by injection of a pH 8.0 buffer.
Assay [3] has the same target. The assay is described as follows: SPR, human FcRn immobilised, pH 6.0; pH 6.0.
Assay [4] shares this target. Briefly: ELISA on coated human FcRn at pH 6.0, OD405. In general terms: In an ELISA, binding on a coated surface is turned into a signal by an enzyme label.
Experimental: Antigens were coating on ELISA plate wells at 50 ng per well in PBS overnight at 4° C., blocked with protein-free blocking buffer for 1 h at 37° C. Threefold serially diluted protein was added and incubated at 37° C. for 2 h. The plates were washed with PBST, and HRP-conjugated anti-Fc antibody in PBS was incubated with wells for 1 h at 37° C. After extensive washes with PBST, the binding was detected with the addition of ABTS substrate, and signals were read at 405 nm. For FcRn binding test at pH 6.0, all proteins were prepared in PBS with pH adjusted to 6.0 by HCl, and PBST with pH 6.0 was used for washing the wells.
For assay [5] the target is unchanged. The assay is described as follows: SPR (BIAcore X100), human FcRn immobilised on CM5 chip, pH 6.0; SPR (BIAcore X100), FcRn on CM5 chip, pH 6.0.
Experimental: The interaction of monomeric Fc with immobilized FcRn was monitored by SPR detection using a BIAcore X100 instrument (GE Healthcare). Purified human FcRn was diluted in 10 mM Na-acetate buffer, pH 5.0, and immobilized on a CM5 biosensor chip using amine coupling kit. The running buffer was PBS with 0.005% Tween 20 for testing binding at pH 7.4, or PBS pH 6.0 with 0.005% Tween 20 for binding at pH 6.0. […] After 10 min of dissociation, the chip was regenerated with pH 8.0 buffer (100 mM Tris, pH 8.0, 50 mM NaCl).
Human FcRn was immobilized on a CM5 bio sensor chip followed by analysis of the interaction using BIAcore X100. The binding was performed under pH 6.0 and pH 7.4, respectively, and the chip was regenerated with pH 8.0 buffer.

Changes are numbered by the printed parent chain.

T1 sequence (P55899 24-297 limits assumed, chain 1 of 2): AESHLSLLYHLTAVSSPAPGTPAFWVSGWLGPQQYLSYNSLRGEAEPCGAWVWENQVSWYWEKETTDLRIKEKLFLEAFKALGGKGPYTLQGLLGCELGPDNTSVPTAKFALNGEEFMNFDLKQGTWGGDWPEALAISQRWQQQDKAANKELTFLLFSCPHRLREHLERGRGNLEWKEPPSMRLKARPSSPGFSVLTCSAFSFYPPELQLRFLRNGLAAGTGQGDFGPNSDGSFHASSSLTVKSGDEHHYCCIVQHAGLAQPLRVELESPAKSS
T1 sequence (P61769 21-119 limits assumed, chain 2 of 2): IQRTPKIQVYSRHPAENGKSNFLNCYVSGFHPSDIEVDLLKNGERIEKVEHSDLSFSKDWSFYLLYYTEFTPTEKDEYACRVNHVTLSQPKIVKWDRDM

B1: wild-type CH3 domain (other)
chain: PREPQVYTLPPSRDELTKNQVSLTCLVKGFYPSDIAVEWESNGQPENNYKTTPPVLDSDGSFFLYSKLTVDKSRWQQGNVFSCSVMHEALHNHYTQKSLSLSPGK
notes: also called isolated CH3; Fc CH3 domain
B1: in assay [1], the binding result was “no binding”.

B2: monomeric CH3 domain (mCH3) (designed binder)
chain: B1 chain with L9S, T24R, L26H, P53K
In turn, B2 gave a Kd in assay [2] of 940 nM.

B3: mCH3 343C/431C mutant (mCH3cc) (designed binder)
chain: B1 chain with P1C, L9S, T24R, L26H, P53K, A89C
modifications: additional disulfide bond between Cys343 and Cys431
notes: also called engineered mCH3
Take B3: the Kd in assay [3] came out at 1080 nM.

B4: mFc.1 (designed binder)
chain: APELLGGPSVFLFPPKPKDTLMISRTPEVTCVVVDVSHEDPEVKFNWYVDGVEVHNAKTKPREEQYNSTYRVVSVLTVLHQDWLNGKEYKCKVSNKALPAPIEKTISKAKGQPREPQVYTYPPSRDELTKNQVSLYCAVKGFYPSDIAVEWESNGQPENNYKTTRPVLDSDGSFRLMSALTVDKSRWQQGNVFSCSVMHEALHNHYTQKSLSLSPGK
notes: also called monomeric Fc mFc.1
In the case of B4, the “EC50 (read off the curve)” value in assay [4] is around 100 nM. Moreover, the dissociation constant Kd in assay [5] was determined as 204 nM.

B5: mFc.67 (designed binder)
chain: B4 chain with Y121K, Y136S, A138L, R165V, M177A, A179Y
notes: also called monomeric Fc mFc.67; mFc.67 monomer
For B5, the affinity in assay [5], expressed as Kd, was 111 nM.

B6: mFc.23 (designed binder)
chain: B4 chain with Y121S, Y136R, A138H, R165K, R175E, M177K
notes: also called monomeric Fc mFc.23
Consider B6, for which the “EC50 (read off the curve)” value in assay [4] is around 60 nM. This molecule also displayed a dissociation constant Kd in assay [5] of 59 nM.

One may read the Kd as a measure of binding affinity in units of concentration. A low value points to higher affinity. Usually EC50 (read off the curve) stands for the concentration that produces a half-maximal response. The low end stands for a more potent agent, the high end for a less potent agent.
